Publication PMC5347340 (2017)

Tests used:
[1] = target: BG505 gp140.681.R1-1NOG trimer (HIV-1 BG505, UniProt Q2N0S6); experiment: BLI
[2] = target: BG505 gp140.681.R1-1V6H trimer (HIV-1 BG505, UniProt Q2N0S6); experiment: BLI

B1: PGDM1400 (protein)
chain 1: DFVLTQSPHSLSVTPGESASISCKSSHSLIHGDRNNYLAWYVQKPGRSPQLLIYLASSRASGVPDRFSGSGSDKDFTLKISRVETEDVGTYYCMQGRESPWTFGQGTKVDIKRTVAAPSVFIFPPSDEQLKSGTASVVCLLNNFYPREAKVQWKVDNALQSGNSQESVTEQDSKDSTYSLSSTLTLSKADYEKHKVYACEVTHQGLSSPVTKSFNRGEC
chain 2: QAQLVQSGPEVRKPGTSVKVSCKAPGNTLKTYDLHWVRSVPGQGLQWMGWISHEGDKKVIVERFKAKVTIDWDRSTNTAYLQLSGLTSGDTAVYYCAKGSKHRLRDYALYDDDGALNWAVDVDYLSNLEFWGQGTAVTVSSASTKGPSVFPLAPSSKSTSGGTAALGCLVKDYFPEPVTVSWNSGALTSGVHTFPAVLQSSGLYSLSSVVTVPSSSLGTQTYICNVNHKPSNTKVDKKVEPKSCD
Q: What does the source list for B1?
A: Kd [1]: 4.7 nM; Kd [2]: 5.1 nM
